Results published in the supplement of paper PMC10567573.

B1: EPB41L3 (parent)
chain: SELGDYDPDECGSDYISEFRFAPN

Variants of: B1
Experiment: protein stability index of a GFP-peptide fusion (GPS, HEK-293T) (PSI 1-6); higher = more stable
Settings: c terminus: a fixed tail appended
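Further: lentivirally expressed fusions sorted by FACS into six bins by GFP to DsRed ratio, PSI derived from sequencing read proportions per bin multiplied by bin number.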

Protein stability index of substitutions, site by site:
E18: K 2.5 | D 1.83 | A 2.1 | F 2.17 | C 2.2 | I 2.41 | L 2.45 | H 2.37 | M 1.96 | N 2.15 | G 2.16
C11: I 2.2 | V 1.91 | M 2 | S 2.51 | H 1.6 | T 1.94 | E 2.7 | D 2.8 | K 2.26 | G 2.26 | A 2.02 | R 2.01 | N 2.27 | L 2.06 | Q 2.49 | F 1.77 | W 1.68 | P 1.78 | Y 2.1
E2: R 1.85 | N 2.03 | V 2.04 | T 1.56 | K 1.94 | H 1.9 | I 1.7 | D 1.79 | W 1.77 | C 2.19 | P 2.54 | L 1.77 | S 1.68 | M 1.81 | A 1.61 | G 1.03 | Q 1.9 | F 2.14 | Y 2.07
E10: R 2.26 | I 1.45 | A 1.88 | M 1.75 | D 1.81 | C 2.38 | Q 1.84 | S 1.85 | G 1.78 | Y 1.55 | T 1.85 | W 1.91 | N 1.9 | L 1.61 | V 2.06 | K 1.85 | F 1.55 | H 1.5 | P 2.04
D5: Y 2.09 | H 1.79 | C 2.06 | I 1.87 | F 1.68 | Q 1.75 | T 2.03 | K 2.17 | S 1.75 | N 1.99 | M 1.71 | G 2.26 | W 1.74 | P 2.35 | A 1.96 | R 2.05 | V 1.51 | L 1.92 | E 1.7
D14: E 1.5 | Q 1.47 | A 1.46 | R 2.51 | K 1.49 | H 1.86 | I 2.32 | G 1.27 | L 2.41 | S 1.61 | Y 2.11 | F 2.43 | C 1.89 | T 2.58 | V 1.31 | M 2.07 | N 1.99 | P 1.63 | W 1.66
I16: F 2.26 | L 2.56 | E 4.6 | V 2.76 | S 4.05 | Q 3.81 | T 3.8 | D 4.99 | C 3.41 | A 4.33 | N 4.52 | Y 3.47 | P 3.7 | K 3.37 | G 4.45 | R 3.47 | H 4.14 | M 2.24 | W 3.24
G4: Q 2 | L 2 | E 2.43 | K 2.18 | H 1.67 | A 2.56 | D 2.35 | F 1.79 | M 2.12 | W 1.7 | V 2.06 | P 2.23 | T 2.39 | I 1.95 | C 1.94 | Y 2.12 | N 1.9 | S 2.19 | R 2.67
Y15: Q 3.05 | S 3.43 | E 4.13 | G 3.75 | L 2.35 | K 2.77 | W 1.97 | I 2.5 | H 2.87 | A 2.46 | M 2.91 | N 4.06 | T 2.7 | C 2.84 | R 2.74 | D 4.23 | P 1.84 | V 2.52 | F 2.18
G12: N 2 | A 2.02 | C 1.55 | S 2.15 | V 1.95 | L 2.15 | Q 2.04 | M 1.88 | W 1.83 | I 2.16 | H 2.22 | R 1.77 | F 1.72 | K 1.9 | D 3.19 | E 2.11 | T 1.93 | P 2.12 | Y 2.32
D7: W 2.1 | G 2.29 | C 1.71 | Q 1.37 | I 1.65 | S 1.47 | H 2.14 | E 3.01 | M 1.93 | L 1.56 | A 1.91 | P 2.31 | R 2.44 | T 1.57 | F 2.29 | Y 1.7 | K 1.14 | N 1.68 | V 1.61
S13: K 1.82 | L 1.97 | I 2.37 | T 1.69 | F 2.11 | C 1.84 | G 2.09 | D 2.7 | R 1.95 | P 2.28 | Q 2.09 | A 2.08 | N 2.34 | H 2.1 | Y 1.91 | W 2.22 | V 1.76 | M 2 | E 2.59
Y6: V 2.1 | S 2.11 | K 2.17 | E 2.37 | C 2.27 | Q 2.11 | H 1.73 | P 2.13 | R 1.84 | M 1.98 | G 2.48 | T 1.97 | N 2.15 | F 2.01 | W 2.31 | I 2.06 | L 2.19 | A 2.46 | D 2.49
D9: M 2.01 | L 1.84 | N 1.55 | Y 1.99 | R 2.12 | A 1.93 | H 1.92 | T 1.47 | V 1.87 | E 2.4 | Q 2.25 | S 2.01 | G 2.03 | K 2.05 | P 1.41 | F 1.95 | C 1.92 | I 1.32 | W 1.63
S17: H 1.88 | Q 2.44 | W 1.76 | N 2.57 | E 3.88 | F 1.7 | I 1.94 | C 2.52 | R 2.34 | M 2.11 | P 1.52 | D 3.94 | L 2.68 | K 2.32 | Y 1.7 | A 2.33 | G 2.36 | T 1.61 | V 2.2
L3: S 2.67 | F 2.36 | G 2.05 | C 2.15 | M 2.02 | Y 1.9 | K 1.74 | V 2.33 | W 1.91 | P 2.27 | T 2.2 | E 1.88 | A 2.05 | N 2.22 | D 2.66 | Q 2.46 | I 2.02 | R 2.03 | H 1.74
S1: C 1.88 | H 1.67 | I 1.71 | K 2.35 | D 2.43 | V 2.25 | P 1.89 | Q 2.87 | W 1.53 | A 1.81 | E 2.29 | G 1.99 | R 1.85 | T 2.5 | F 1.86 | M 2.8 | L 2.02 | N 1.81 | Y 3.03
P8: H 2.1 | W 1.76 | N 2.19 | E 2.29 | S 2.29 | V 1.9 | M 2.08 | G 2.06 | L 2.26 | A 2.44 | Q 2.03 | R 2.1 | T 1.92 | I 1.77 | K 2.11 | F 2.37 | C 1.51 | D 2.13 | Y 1.82
